Reference: the Human Domainome abundance scans (Beltran et al. 2025)
± gives the uncertainty stated by the source.

B1: DNA topoisomerase 3-alpha, residues 812 to 851; numbered along this chain, Q13472 (parent)
chain: TCNCGQEAVLLTVRKEGPNRGRQFFKCNGGSCNFFLWADS
B2: Spectrin alpha chain, erythrocytic 1, residues 979 to 1036; numbered along this chain, P02549 (parent)
chain: EQRVMALYDFQARSPREVTMKKGDVLTLLSSINKDWWKVEAADHQGIVPAVYVRRLAH

Variants of: B1
Assay: abundance fitness (aPCA) (normalised: wild type 0, dead -1); higher = more abundant; growth selection in yeast, the domain comes from the species named
Conditions: Homo sapiens

Point of comparison: L36W, abundance fitness -0.134 ± 0.086. Against it:
- F25V — lower, -0.509 ± 0.076
- F25W — within error, -0.123 ± 0.084
- C32G — lower, -1.07 ± 0.25
- C32S — within error, -0.33 ± 0.41
- C32T — lower, -0.854 ± 0.26
- C32V — lower, -0.977 ± 0.25
- C32R — lower, -0.934 ± 0.26
- C32P — lower, -1.36 ± 0.4
- C27A — lower, -0.44 ± 0.15
- C27E — within error, -0.53 ± 0.38
- C27T — lower, -0.86 ± 0.25
- C27L — lower, -0.984 ± 0.19
- C27G — lower, -1.19 ± 0.41
- C27M — lower, -0.789 ± 0.25
- C27R — lower, -1 ± 0.36
- C27H — lower, -0.753 ± 0.35
- C27V — lower, -1.09 ± 0.25
- D39E — within error, -0.105 ± 0.088
- D39C — within error, -0.205 ± 0.14
- D39Q — within error, -0.63 ± 0.42
- D39M — lower, -1.03 ± 0.22
- D39L — lower, -0.93 ± 0.15
- D39P — within error, -0.171 ± 0.17
- D39G — within error, -0.227 ± 0.083
- D39R — lower, -0.838 ± 0.49
- N33L — lower, -0.892 ± 0.37
- N33A — within error, -0.12 ± 0.057
- N33G — within error, -0.072 ± 0.13
- N33T — within error, -0.075 ± 0.079
- N33S — within error, -0.057 ± 0.062
- N33V — lower, -0.7 ± 0.11
- N33W — lower, -0.572 ± 0.11
- G30V — lower, -0.574 ± 0.12
- G30Q — within error, -0.265 ± 0.071
- G30S — lower, -0.304 ± 0.069
- G30W — within error, -0.287 ± 0.36
- G30A — within error, -0.381 ± 0.2
- G30L — lower, -0.473 ± 0.14
- A38V — within error, -0.295 ± 0.13
- A38P — lower, -0.659 ± 0.13
- A38D — within error, -0.371 ± 0.21
- S31W — within error, -0.273 ± 0.11
- S31L — within error, -0.176 ± 0.073
- S31I — within error, -0.209 ± 0.27
- S31D — higher, 0.077 ± 0.094
- S31Q — higher, 0.055 ± 0.099
- S31H — higher, 0.092 ± 0.088
- S31G — within error, -0.071 ± 0.068
- S31K — higher, 0.112 ± 0.08
- S31T — higher, 0.114 ± 0.11
- S31A — within error, -0.072 ± 0.073
- S31M — within error, -0.13 ± 0.085
- S31C — within error, -0.239 ± 0.076
- S31R — higher, 0.065 ± 0.051
- K26A — within error, -0.001 ± 0.095
- K26S — within error, -0.011 ± 0.11
- K26C — within error, -0.13 ± 0.17
- K26G — within error, -0.004 ± 0.056
- K26M — within error, -0.232 ± 0.12
- K26V — within error, -0.266 ± 0.063
- K26R — within error, 0.025 ± 0.12
- K26L — lower, -0.318 ± 0.096
- N28V — within error, -0.136 ± 0.078
- N28T — within error, -0.043 ± 0.13
- N28L — within error, -0.195 ± 0.18
- N28A — higher, 0.075 ± 0.069
- N28S — within error, -0.09 ± 0.047
- N28I — within error, 0.137 ± 0.3
- N28R — higher, 0.131 ± 0.12
- N28W — within error, 0.079 ± 0.2
- W37A — lower, -0.477 ± 0.089
- W37P — within error, -0.239 ± 0.064
- W37L — lower, -0.52 ± 0.23
- W37R — lower, -0.51 ± 0.085
- W37K — within error, -0.29 ± 0.13
- W37G — lower, -0.48 ± 0.048
- W37T — lower, -0.483 ± 0.13
- W37V — within error, -0.19 ± 0.078
- G29R — within error, -0.093 ± 0.059
- G29V — within error, -0.074 ± 0.068
- G29A — higher, 0.121 ± 0.075
- G29D — within error, 0 ± 0.12
- G29T — within error, -0.371 ± 0.22
- G29P — within error, -0.571 ± 0.36
- F35P — lower, -0.388 ± 0.16
- F35K — within error, -0.014 ± 0.11
- F35V — within error, -0.352 ± 0.14
- F35Q — within error, -0.241 ± 0.09
- F35L — lower, -0.444 ± 0.076
- F35W — within error, -0.246 ± 0.11
- F35E — lower, -0.447 ± 0.16
- F34E — lower, -0.626 ± 0.17
- F34H — within error, -0.396 ± 0.22
- F34K — lower, -0.576 ± 0.15
- F34R — within error, -0.374 ± 0.2
- F34Q — within error, -0.44 ± 0.3
- F34L — lower, -0.703 ± 0.15
- L36H — within error, -0.22 ± 0.17
- L36A — higher, 0.028 ± 0.045
- L36S — higher, 0.134 ± 0.17
- L36V — within error, -0.255 ± 0.09
- L36F — within error, 0.063 ± 0.35
- L36E — within error, -0.013 ± 0.066
- L36Y — within error, -0.265 ± 0.14
- L36R — higher, 0.013 ± 0.058
- L36K — higher, 0.189 ± 0.081
- L36G — within error, -0.177 ± 0.054
- L36M — within error, 0.022 ± 0.078

Variants of: B2
Assay: as above
Conditions: Homo sapiens

Point of comparison: Q2D, abundance fitness 0.855 ± 0.26. Against it:
- Q2H — lower, -0.061 ± 0.13
- Q2F — within error, 0.195 ± 0.48
- Q2G — lower, -0.187 ± 0.17
- Q2L — lower, -0.573 ± 0.5
- Q2V — lower, -0.384 ± 0.37
- Q2E — lower, 0.108 ± 0.22
- Q2P — lower, -0.874 ± 0.36
- Q2T — lower, -0.614 ± 0.38
- Q2R — lower, -0.401 ± 0.17
- Q2A — lower, -0.002 ± 0.27
- Q2S — lower, -0.822 ± 0.42
- A6G — lower, -0.76 ± 0.14
- A6C — lower, -0.048 ± 0.27
- A6L — lower, -0.886 ± 0.12
- A6E — lower, -0.47 ± 0.11
- A6K — lower, -0.73 ± 0.28
- A6M — lower, -0.915 ± 0.3
- V4Q — lower, -0.145 ± 0.18
- V4T — lower, -1.04 ± 0.23
- V4K — lower, -0.739 ± 0.16
- V4M — lower, -0.716 ± 0.31
- V4G — lower, -1.05 ± 0.28
- V4P — lower, -0.927 ± 0.21
- V4C — lower, -0.52 ± 0.33
- V4L — lower, -0.537 ± 0.098
- V4R — lower, -0.877 ± 0.12
- V4A — lower, -0.945 ± 0.25
- M5G — lower, -0.813 ± 0.092
- M5N — lower, -0.512 ± 0.48
- M5W — lower, -0.85 ± 0.17
- M5K — lower, -0.201 ± 0.39
- M5S — lower, -0.344 ± 0.15
- M5C — lower, -0.516 ± 0.18
- M5E — lower, 0.081 ± 0.15
- M5Q — lower, -0.383 ± 0.21
- M5A — lower, -0.587 ± 0.14
- M5V — lower, 0.422 ± 0.056
- M5T — lower, -0.242 ± 0.14
- M5I — lower, 0.162 ± 0.14
- E1R — lower, -0.215 ± 0.35
- E1G — lower, -0.425 ± 0.088
- E1D — lower, 0.242 ± 0.32
- R3F — lower, 0.074 ± 0.12
- R3Q — lower, -0.272 ± 0.11
- R3V — lower, -0.828 ± 0.36
- R3M — lower, -0.448 ± 0.14
- R3H — lower, -0.408 ± 0.21
- R3K — lower, 0.226 ± 0.099
- R3W — lower, -0.209 ± 0.26
- R3Y — lower, 0.294 ± 0.17
- R3T — lower, -0.778 ± 0.14
- R3S — lower, -0.737 ± 0.2
- R3A — lower, -0.574 ± 0.2
- R3L — lower, -0.14 ± 0.11
- R3E — lower, -0.582 ± 0.38
- R3C — lower, -0.645 ± 0.34
- R3P — lower, -0.94 ± 0.36
